# Experimental data reported in the supplement of paper PMC7877785.
# ± gives the uncertainty stated by the source.
# Assay: self-splicing fitness, log relative to wild type (ln ratio); higher = more splicing; Tetrahymena group I intron in knt gene, E. coli kanamycin selection, DiMSum; sequences stand for … in CUCUCU…GGAGGGAAAAGUUAUCAGGCAUGCACCUGGUAGCUAGUCUUUAAACCAAUAGAUUGCAUCGGUUUAAAAGGCAAGACCGUCAAAUUGCGGGAAAGGGGUCAACAGCCGUUCAGUACCAAGUCUCAGGGGAAACUUUGAGAUGGCCUUGCAAAGGGUAUGGUAAUAAGCUGACGGACAUGGUCCUAACCACGCAGCCAAGUCCUAAGUCAACAGAUCUUCUGUUGAUAUGGAUGCAGUUCACAGACUAAAUGUCGGUCGGGGAAGAUGUAUUCUUCUCAUAAGAUAUAGUCGGACCUCUCCUUAAUGGGAGCUAGCGGAUGAAGUGAUGCAACACUGGAGCCGCUGGGAACUAAUUUGUAUGCGAAAGUAUAUUGAUUAGUUUUGGAGUACUCGUGGUCG
# Method in brief: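 Library with all eight P1ex-region intron nucleotides randomised, intron inside the knt kanamycin-resistance gene on pET-22b(+), in E. coli BL21(DE3). Cells grew overnight at 37°C or 30°C on LB agar with or without 25 μg/mL kanamycin (plus 100 μg/mL carbenicillin, 50 μM IPTG, 0.2% rhamnose), in six replicate transformations. Pooled colonies were amplicon-sequenced on Illumina HiSeq 2500. DiMSum fitness is the error-weighted combination of wild-type-normalised replicate fold changes, kanamycin versus none.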
Sequence,self-splicing fitness (ln) (30 °C),self-splicing fitness (ln) (37 °C)
AAAAAGCAAUAUUACGAACU,-0.488 ± 0.07,-0.079 ± 0.087
AAAAAGCAAUAUUACGAAUA,-1.42 ± 0.1,-0.458 ± 0.095
AAAAAGCAAUAUUACGACAG,-1.17 ± 0.066,-0.774 ± 0.088
AAAAAGCAAUAUUACGAGUC,-3.46 ± 0.22,-1.28 ± 0.19
AAAAAGCAAUAUUACGAUGC,-1.66 ± 0.091,-0.868 ± 0.11
AAAAAGCAAUAUUACGCACG,-1.4 ± 0.094,-0.508 ± 0.14
AAAAAGCAAUAUUACGCCAC,–,-2.91 ± 0.47
AAAAAGCAAUAUUACGCCCA,-0.382 ± 0.12,-0.253 ± 0.16
AAAAAGCAAUAUUACGCUGG,-1.73 ± 0.11,-0.618 ± 0.13
AAAAAGCAAUAUUACGGCGU,-0.321 ± 0.078,0.208 ± 0.098
AAAAAGCAAUAUUACGGGGG,-3.27 ± 0.17,-2.76 ± 0.18
AAAAAGCAAUAUUACGGUAG,-3.38 ± 0.21,-1.45 ± 0.15
AAAAAGCAAUAUUACGGUUC,-2.7 ± 0.18,-1.81 ± 0.21
AAAAAGCAAUAUUACGUAAU,-1.4 ± 0.063,-0.916 ± 0.085
AAAAAGCAAUAUUACGUACG,-1.1 ± 0.055,-0.101 ± 0.076
AAAAAGCAAUAUUACGUAGU,-2.1 ± 0.076,-1.69 ± 0.091
AAAAAGCAAUAUUACGUAUC,-2.37 ± 0.089,-1.5 ± 0.12
AAAAAGCAAUAUUACGUCCU,0.148 ± 0.065,0.294 ± 0.079
AAAAAGCAAUAUUACGUGAU,-2.07 ± 0.072,-0.588 ± 0.09
AAAAAGCAAUAUUACGUGUA,-1.78 ± 0.089,-1.33 ± 0.085
AAAAAGCAAUAUUACGUGUG,-1.57 ± 0.049,-1.27 ± 0.069
AAACAGCAAUAUUACGAACA,-1.78 ± 0.09,-0.635 ± 0.084
AAACAGCAAUAUUACGAAGA,-2.29 ± 0.12,-1.55 ± 0.11
AAACAGCAAUAUUACGACAA,-0.939 ± 0.095,-0.417 ± 0.11
AAACAGCAAUAUUACGACCC,-0.763 ± 0.11,0.302 ± 0.13
AAACAGCAAUAUUACGACGU,-0.232 ± 0.045,0.39 ± 0.052

Sequence,self-splicing fitness (ln) (30 °C),self-splicing fitness (ln) (37 °C)
AAACAGCAAUAUUACGAGGG,-3.69 ± 0.15,-2.33 ± 0.15
AAACAGCAAUAUUACGAGUC,-3.55 ± 0.14,-2.38 ± 0.14
AAACAGCAAUAUUACGAUCA,-0.774 ± 0.07,-0.178 ± 0.065
AAACAGCAAUAUUACGAUUA,-1.16 ± 0.092,-0.343 ± 0.094
AAACAGCAAUAUUACGAUUC,-2.04 ± 0.1,0.0665 ± 0.091
AAACAGCAAUAUUACGCCCC,-1.63 ± 0.15,-0.801 ± 0.19
AAACAGCAAUAUUACGCCCG,-1.35 ± 0.27,-0.868 ± 0.32
AAACAGCAAUAUUACGCUAC,-3.84 ± 0.2,-3.56 ± 0.24
AAACAGCAAUAUUACGCUAU,-1.87 ± 0.1,-2.23 ± 0.16
AAACAGCAAUAUUACGCUCA,-0.43 ± 0.081,0.168 ± 0.1
AAACAGCAAUAUUACGCUGU,-3.85 ± 0.14,-1.89 ± 0.096
AAACAGCAAUAUUACGGAAC,-3.5 ± 0.16,-4.05 ± 0.28
AAACAGCAAUAUUACGGAGU,-3.77 ± 0.16,-2.53 ± 0.11
AAACAGCAAUAUUACGGCCC,-2.15 ± 0.2,-0.625 ± 0.23
AAACAGCAAUAUUACGGCGU,-0.571 ± 0.053,-0.336 ± 0.063
AAACAGCAAUAUUACGGGGC,-3.85 ± 0.16,-3.51 ± 0.19
AAACAGCAAUAUUACGGGGU,-3.07 ± 0.11,-2.6 ± 0.14
AAACAGCAAUAUUACGUAGU,-1.64 ± 0.054,-1.62 ± 0.077
AAACAGCAAUAUUACGUCGG,-2.8 ± 0.11,-1.13 ± 0.11
AAACAGCAAUAUUACGUCGU,-2.13 ± 0.071,-0.661 ± 0.071
AAACAGCAAUAUUACGUGGA,-3.1 ± 0.14,-1.95 ± 0.1
AAAGAGCAAUAUUACGAAUG,-2.69 ± 0.2,–
AAAGAGCAAUAUUACGACAC,-2.67 ± 0.29,-1.89 ± 0.41
AAAGAGCAAUAUUACGAGAG,-3.36 ± 0.19,-3.42 ± 0.21
AAAGAGCAAUAUUACGAGCA,-2.83 ± 0.39,-2.26 ± 0.42
AAAGAGCAAUAUUACGAGGC,-3.57 ± 0.24,-2.74 ± 0.28

Sequence,self-splicing fitness (ln) (30 °C),self-splicing fitness (ln) (37 °C)
AAAGAGCAAUAUUACGAUGC,-2.54 ± 0.2,-1.96 ± 0.27
AAAGAGCAAUAUUACGCAAG,-3.4 ± 0.19,-3.51 ± 0.36
AAAGAGCAAUAUUACGCAGU,-3.46 ± 0.2,-1.71 ± 0.17
AAAGAGCAAUAUUACGCGAC,-2.55 ± 0.2,-0.998 ± 0.14
AAAGAGCAAUAUUACGCUCA,–,-0.771 ± 0.37
AAAGAGCAAUAUUACGGAGG,-3.48 ± 0.22,-2.3 ± 0.23
AAAGAGCAAUAUUACGGAUC,-2.89 ± 0.2,-2.56 ± 0.15
AAAGAGCAAUAUUACGGCGA,-1.65 ± 0.22,-1.26 ± 0.3
AAAGAGCAAUAUUACGGGCA,-2.45 ± 0.2,-1.42 ± 0.24
AAAGAGCAAUAUUACGGUGU,-4.54 ± 0.28,-2.87 ± 0.21
AAAGAGCAAUAUUACGUACA,-3.37 ± 0.28,-1.71 ± 0.23
AAAGAGCAAUAUUACGUAUA,-3.45 ± 0.37,-1.89 ± 0.32
AAAGAGCAAUAUUACGUCAA,-3.31 ± 0.18,-2.61 ± 0.19
AAAGAGCAAUAUUACGUCAC,-2.56 ± 0.5,-2.76 ± 0.31
AAAGAGCAAUAUUACGUCGG,-3.89 ± 0.24,-1.71 ± 0.2
AAAGAGCAAUAUUACGUGCG,-2.69 ± 0.12,-1.82 ± 0.13
AAAGAGCAAUAUUACGUGGG,-3.99 ± 0.18,-3.8 ± 0.2
AAAGAGCAAUAUUACGUUCU,-2.77 ± 0.13,-1.72 ± 0.13
AAAGAGCAAUAUUACGUUGC,-3.79 ± 0.39,-1.93 ± 0.23
AAAGAGCAAUAUUACGUUUU,-2.46 ± 0.11,-1.91 ± 0.12
AAAUAGCAAUAUUACGAAGA,-2.26 ± 0.26,-1.1 ± 0.17
AAAUAGCAAUAUUACGACAU,-0.145 ± 0.012,0.051 ± 0.032
AAAUAGCAAUAUUACGACUC,-0.664 ± 0.17,-0.335 ± 0.21
AAAUAGCAAUAUUACGACUG,-0.98 ± 0.12,-0.722 ± 0.18
AAAUAGCAAUAUUACGAGCU,-1.37 ± 0.12,-0.386 ± 0.13
